First the molecules themselves.
B1: LINE1-full (parent)
chain: UACGUAGGUGGUUUUCCCCUGAUAGUGCUAAGGGGGCCUGGAAGUUUGGACUGGGCAGAGCUCAACACAGCGUGGCAAAGUGGCUGUGGCUAGACUGCCUCUCUGGAUUCCUCGUCACUCAGCAGGGCAUCUCUGAGAGAAAUGCC

Variants of B1 are the subject of this data set. Description: self-cleavage, relative activity (ratio to wild type); higher = more cleavage; in vitro, sequencing; the parent is a self-cleaving ribozyme.
As to C95U U96C, the self-cleavage was found to be 0.07.

For the variant U100A G139U, the self-cleavage was found to be 0.31.

Turning to U96A G125U, the self-cleavage came out at 0.09.

For the variant U100A U115A, the self-cleavage came out at 0.72.

Take C99U C133U: the self-cleavage turned out to be 0.34.

As to U96A U109C, the self-cleavage is 0.1.

Regarding A94C U109A, the self-cleavage turned out to be 0.05.

For A94C U109C, the self-cleavage turned out to be 0.

U96A C103A: the self-cleavage turned out to be 0.06.

As for U96C C131U, the self-cleavage came to 0.09.

Turning to A92C U112C, the self-cleavage came to 0.18.

Turning to C95A U130C, the self-cleavage turned out to be 0.

As to U96C U109C, the self-cleavage was 0.08.

Take U96C U109G: the self-cleavage is 0.16.

In the case of U96C U109A, the self-cleavage turned out to be 0.15.

In the case of A94G A138G, the self-cleavage worked out at 0.19.

Turning to A92U U115C, the self-cleavage turned out to be 0.72.

With A92U U115A, the self-cleavage was 0.62.

In the case of A92G U109A, the self-cleavage stood at 0.08.

In the case of A92G U109C, the self-cleavage was determined as 0.09.

For the variant A94G G126A, the self-cleavage was 0.21.

On to G97A U104A, for which the self-cleavage is 0.06.

As to U96C C133U, the self-cleavage was 0.08.

Consider G97U U132A, for which the self-cleavage stood at 0.03.

In the case of G93A A117G, the self-cleavage was 0.06.

With U96C G106U, the self-cleavage came to 0.06.

For A92G A94U, the self-cleavage was 0.05.

As for U96A U104G, the self-cleavage was found to be 0.08.

For the variant C99A A107G, the self-cleavage stood at 0.61.

Turning to U96A A124U, the self-cleavage was found to be 0.06.

With C99A G114A, the self-cleavage amounted to 0.44.

For A94U G105A, the self-cleavage was determined as 0.21.

For G93U A107G, the self-cleavage is 0.06.

G97A U130C: the self-cleavage was determined as 0.19.

A92G U104A: the self-cleavage was 0.06.

In the case of G93U U115C, the self-cleavage came to 0.04.

A94G U132G: the self-cleavage amounted to 0.28.

Take A94U C133U: the self-cleavage was 0.29.

On to U96C G139U, for which the self-cleavage amounted to 0.14.

A92U U130A: the self-cleavage is 0.67.

With C99A A124G, the self-cleavage is 0.21.

With A92G A138U, the self-cleavage was 0.11.

On to C98A A138G, for which the self-cleavage was 0.29.

As to A92G U119C, the self-cleavage came out at 0.1.

For the variant A92G G97C, the self-cleavage is 0.06.

Regarding U96A A129G, the self-cleavage stood at 0.07.

As for U96A A129U, the self-cleavage was 0.07.

As for A92G U143A, the self-cleavage is 0.14.

Turning to U96A A141G, the self-cleavage is 0.08.

For the variant G93A A141G, the self-cleavage was 0.04.

Take C95U A141G: the self-cleavage turned out to be 0.07.

On to A92U U119C, for which the self-cleavage was 0.87.

Consider G93A A129G, for which the self-cleavage amounted to 0.08.

In the case of A94G A141U, the self-cleavage amounted to 0.19.

As for G97A A141G, the self-cleavage came to 0.12.

Consider U100A A117U, for which the self-cleavage amounted to 1.01.

Consider U100A A117G, for which the self-cleavage was determined as 0.61.

Regarding A92G U134C, the self-cleavage was determined as 0.

Turning to A92G U96C, the self-cleavage amounted to 0.25.

On to A92G C128U, for which the self-cleavage is 0.03.

As to A92G C128A, the self-cleavage turned out to be 0.04.

Take A92G U100A: the self-cleavage worked out at 0.13.

Regarding C99A U143C, the self-cleavage came out at 1.03.

For the variant C99A U143A, the self-cleavage turned out to be 0.84.

On to C98U A107G, for which the self-cleavage stood at 0.46.

Turning to G93C C120U, the self-cleavage amounted to 0.03.

For the variant U96C G105A, the self-cleavage came out at 0.06.

As for C99U A124G, the self-cleavage worked out at 0.32.

C99U A124U: the self-cleavage came out at 0.42.

On to G93A U132C, for which the self-cleavage came to 0.03.

As for C95U A117U, the self-cleavage is 0.21.

C95U U119C: the self-cleavage was 0.22.

With U100A A138G, the self-cleavage was 1.18.

With U100A A138U, the self-cleavage stood at 0.89.

With A94C A117C, the self-cleavage came to 0.07.

In the case of A94C A117G, the self-cleavage worked out at 0.22.

U96A G144A: the self-cleavage stood at 0.07.

As to A94G C131U, the self-cleavage was found to be 0.17.

Take G97A U115C: the self-cleavage worked out at 0.3.

For U96C G144A, the self-cleavage was 0.25.

Take G93U G127C: the self-cleavage was determined as 0.19.

On to C99G U112A, for which the self-cleavage came out at 0.69.

For U96G U112C, the self-cleavage is 0.05.

For U100A A136G, the self-cleavage came out at 1.25.

Take U96A U100A: the self-cleavage was 0.07.

As for U96G G126A, the self-cleavage was 0.

For C98U U115A, the self-cleavage is 0.44.

C99U A140G: the self-cleavage came to 0.71.

For the variant G97U A138U, the self-cleavage came to 0.11.

On to U96A A142G, for which the self-cleavage worked out at 0.08.

Turning to U96C U134C, the self-cleavage came out at 0.11.

Turning to A94U A129G, the self-cleavage amounted to 0.3.

For U96A U134C, the self-cleavage came out at 0.08.

U96A C145A: the self-cleavage came out at 0.06.

In the case of U100A A140G, the self-cleavage worked out at 0.76.

On to U100A A140U, for which the self-cleavage worked out at 0.57.

As to A94U A140G, the self-cleavage was found to be 0.23.

As for A92U A107C, the self-cleavage worked out at 0.9.

Regarding A92U A107U, the self-cleavage stood at 0.89.

Turning to U96A C116U, the self-cleavage came to 0.11.

For the variant C95A U100C, the self-cleavage worked out at 0.09.

In the case of U100A C145U, the self-cleavage was found to be 1.15.

In the case of A92U A117G, the self-cleavage was determined as 1.46.

For the variant U96C U102C, the self-cleavage turned out to be 0.12.

In the case of U96C U102A, the self-cleavage amounted to 0.11.

On to G97A A107G, for which the self-cleavage stood at 0.13.

Take C98G U102C: the self-cleavage came out at 0.14.

For A94G C110U, the self-cleavage came out at 0.32.

With A94G C110G, the self-cleavage was found to be 0.22.

With G97A A140U, the self-cleavage stood at 0.02.

On to U100A C118U, for which the self-cleavage was found to be 0.98.

With C99A U115C, the self-cleavage is 0.84.

As to U96A C99U, the self-cleavage is 0.03.

U96C U108C: the self-cleavage amounted to 0.17.

In the case of U96C U108G, the self-cleavage is 0.

As for G93A U130C, the self-cleavage came out at 0.02.

With C95A G114A, the self-cleavage worked out at 0.07.

With U96A C123U, the self-cleavage amounted to 0.06.

As for C98U A140G, the self-cleavage is 0.57.

With C99U U108C, the self-cleavage is 0.71.

Take U96A U102C: the self-cleavage was 0.12.

In the case of U96A U102A, the self-cleavage is 0.1.

Consider G97A U108C, for which the self-cleavage turned out to be 0.17.

Regarding G97A G126A, the self-cleavage stood at 0.09.

G97A G126U: the self-cleavage was 0.07.

Turning to C95A U143C, the self-cleavage stood at 0.08.

Regarding A92U U109C, the self-cleavage is 0.65.

A92U U109A: the self-cleavage was determined as 0.34.

Turning to A92G U132C, the self-cleavage amounted to 0.05.

In the case of A92U C110U, the self-cleavage stood at 0.46.

As for A94G A129U, the self-cleavage came out at 0.22.

On to A92G C113U, for which the self-cleavage was found to be 0.1.

Consider C98U U102C, for which the self-cleavage was 0.55.

As to G93U U112C, the self-cleavage worked out at 0.03.

With A92U C118G, the self-cleavage worked out at 0.37.

As for A94U U96A, the self-cleavage amounted to 0.08.

As for G93U U102C, the self-cleavage was found to be 0.04.

Regarding A94G U143A, the self-cleavage turned out to be 0.55.

Consider G97A G114A, for which the self-cleavage is 0.15.

For the variant G93A U112C, the self-cleavage was determined as 0.06.

In the case of A94G U108C, the self-cleavage came to 0.61.

Regarding C95A U112C, the self-cleavage stood at 0.05.

With G93A A142G, the self-cleavage was found to be 0.04.

Consider A94G A121C, for which the self-cleavage was found to be 0.57.

Take A94G A121G: the self-cleavage is 0.22.

A94U U102C: the self-cleavage was 0.16.

For the variant G93U U109C, the self-cleavage was found to be 0.02.

In the case of C99U C145A, the self-cleavage worked out at 1.03.

For the variant A92C U104A, the self-cleavage was 0.38.

Take G93U G122A: the self-cleavage was 0.06.

As for U96C C128U, the self-cleavage came out at 0.12.

As to A94U A142C, the self-cleavage worked out at 0.09.

For the variant A94U A142G, the self-cleavage worked out at 0.34.

In the case of U96G U102C, the self-cleavage worked out at 0.

As for G93A U108C, the self-cleavage is 0.03.

Consider A94G A124U, for which the self-cleavage was 0.36.

As to U96A U112C, the self-cleavage was 0.06.

Turning to A94G C133A, the self-cleavage worked out at 0.46.

On to U96C C99U, for which the self-cleavage stood at 0.1.

For A92G A107U, the self-cleavage stood at 0.09.

As for A92U A124U, the self-cleavage stood at 1.2.

As for A92G G122A, the self-cleavage turned out to be 0.13.

As for A92U U96C, the self-cleavage came to 0.11.

Take A94U C113U: the self-cleavage was 0.12.

With A94U A136G, the self-cleavage turned out to be 0.3.

Turning to A92G A141G, the self-cleavage was 0.12.

For the variant A92U G126A, the self-cleavage turned out to be 0.41.

These data come from the RNAGym collection of RNA variant scans (doi:10.7554/elife.90254).
